Data: US20210388087A1 (Chugai, published 2021)

Assays:
Human CD137 ECD = molecular target: T1, Human CD137 ECD (human); experiment: SPR, vs parent H183/L072
T1 construct: also called 4-1BB

[1] = molecular target: human CD137 on HDLM-2 cells (human, UniProt Q07011 24-255); experiment: cell-based or functional assay
Sequence of human CD137 on HDLM-2 cells (Q07011 24-255): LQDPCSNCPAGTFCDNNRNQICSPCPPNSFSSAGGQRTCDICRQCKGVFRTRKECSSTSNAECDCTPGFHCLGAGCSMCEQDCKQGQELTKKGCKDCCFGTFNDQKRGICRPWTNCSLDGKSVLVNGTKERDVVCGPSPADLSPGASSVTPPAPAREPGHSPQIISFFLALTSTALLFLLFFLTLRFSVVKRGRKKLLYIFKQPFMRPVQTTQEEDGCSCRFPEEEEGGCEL

T1 sequence (chain, as listed by the source limits assumed): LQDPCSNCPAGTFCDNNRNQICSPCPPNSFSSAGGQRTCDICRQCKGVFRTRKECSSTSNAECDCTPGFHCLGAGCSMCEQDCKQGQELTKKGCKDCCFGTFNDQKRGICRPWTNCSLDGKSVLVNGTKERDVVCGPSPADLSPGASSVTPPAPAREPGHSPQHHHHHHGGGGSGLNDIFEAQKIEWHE

Row | Binder | fold change of affinity (Human CD137 ECD) [fold] | Agonistic activity compared to B, antibody 6 ug/mL [1] [%] | Agonistic activity compared to B, antibody 30 ug/mL [1] [%] | Agonistic activity compared to Ctrl, antibody 6 ug/mL [1] [%] | Agonistic activity compared to Ctrl, antibody 30 ug/mL [1] [%] | hIL-6 (pg/mL), antibody 6 ug/mL [1] [pg/mL] | hIL-6 (pg/mL), antibody 30 ug/mL [1] [pg/mL]
1 | GPC3 ERY22-B (bispecific antibody, human IgG1, kappa, L234A L235A, N297A) heavy 1: DIVMTQSPLSLPVTPGEPASISCRSSQSLVHSNRNTYLHWYQQKPGQAPRLLIYKVSNRFSGVPDRFSGSGSGTDFTLKISRVEAEDVGVYYCSQNTHVPPTFGQGTKLEIKSSASTKGPSVFPLAPSSKSTSGGTAALGCLVKDYFPEPVTVSWNSGALTSGVHTFPAVLQSSGLYSLSSVVTVPSSSLGTQTYICNVNHKPSNTKVDKKVEPKSCDKTHTCPPCPAPEAAGGPSVFLFPPKPKDTLMISRTPEVTCVVVDVSHEDPEVKFNWYVDGVEVHNAKTKPREEQYASTYRVVSVLTVLHQDWLNGKEYKCKVSNKALPAPIEKTISKAKGQPREPQVCTLPPSRDELTKNQVSLWCLVKGFYPSDIAVEWESNGQPENNYKTTPPVLDSDGSFFLYSKLTVDKSRWQQGNVFSCSVMHEALHNHYTQKSLSLSPHHHHHHHH light 1: QVQLVQSGAEVKKPGASVKVSCKASGYTFTDYEMHWIRQPPGQGLEWIGAIDPKTGDTAYSQKFKGRVTLTADKSTSTAYMELSSLTSEDTAVYYCTRFYSYTYWGQGTLVTVSSASVAAPSVFIFPPSDEQLKSGTASVVCLLNNFYPREAKVQWKVDNALQSGNSQESVTEQDSKDSTYSLSSTLTLSKADYEKHKVYACEVTHQGLSSPVTKSFNRGEC heavy 2: QVQLQQWGAGLLKPSETLSLTCAVYGGSFSGYYWSWIRQSPEKGLEWIGEINHGGYVTYNPSLESRVTISVDTSKNQFSLKLSSVTAADTAVYYCARDYGPGNYDWYFDLWGRGTLVTVSSASTKGPSVFPLAPSSKSTSGGTAALGCLVKDYFPEPVTVSWNSGALTSGVHTFPAVLQSSGLYSLSSVVTVPSSSLGTQTYICNVNHKPSNTKVDKKVEPKSCDKTHTCPPCPAPEAAGGPSVFLFPPKPKDTLMISRTPEVTCVVVDVSHEDPEVKFNWYVDGVEVHNAKTKPREEQYASTYRVVSVLTVLHQDWLNGKEYKCKVSNKALPAPIEKTISKAKGQPREPQVYTLPPSRCELTKNQVSLSCAVKGFYPSDIAVEWESNGQPENNYKTTPPVLDSDGSFFLVSKLTVDKSRWQQGNVFSCSVMHEALHNHYTQKSLSLSP light 2: not shown |  | 100 | 100 | 347 | 380 | 4520 | 4340
2 | GPC3 ERY22-dBBDu_183/L063 (bispecific antibody, human IgG1, kappa, L234A L235A, N297A) heavy 1: DIVMTQSPLSLPVTPGEPASISCRSSQSLVHSNRNTYLHWYQQKPGQAPRLLIYKVSNRFSGVPDRFSGSGSGTDFTLKISRVEAEDVGVYYCSQNTHVPPTFGQGTKLEIKSSASTKGPSVFPLAPSSKSTSGGTAALGCLVKDYFPEPVTVSWNSGALTSGVHTFPAVLQSSGLYSLSSVVTVPSSSLGTQTYICNVNHKPSNTKVDKKVEPKSCDKTHTCPPCPAPEAAGGPSVFLFPPKPKDTLMISRTPEVTCVVVDVSHEDPEVKFNWYVDGVEVHNAKTKPREEQYASTYRVVSVLTVLHQDWLNGKEYKCKVSNKALPAPIEKTISKAKGQPREPQVCTLPPSRDELTKNQVSLWCLVKGFYPSDIAVEWESNGQPENNYKTTPPVLDSDGSFFLYSKLTVDKSRWQQGNVFSCSVMHEALHNHYTQKSLSLSPHHHHHHHH light 1: QVQLVQSGAEVKKPGASVKVSCKASGYTFTDYEMHWIRQPPGQGLEWIGAIDPKTGDTAYSQKFKGRVTLTADKSTSTAYMELSSLTSEDTAVYYCTRFYSYTYWGQGTLVTVSSASVAAPSVFIFPPSDEQLKSGTASVVCLLNNFYPREAKVQWKVDNALQSGNSQESVTEQDSKDSTYSLSSTLTLSKADYEKHKVYACEVTHQGLSSPVTKSFNRGEC heavy 2: QVQLVESGGGLVQPGRSLRLSCAASGFTFSNAWMHWVRQAPGKGLEWVAQIKDKGNAYAAYYAPSVKGRFTISRDDSKNSIYLQMNSLKTEDTAVYYCHYVHYASASTVLPAFGVDAWGQGTTVTVSSASTKGPSVFPLAPSSKSTSGGTAALGCLVKDYFPEPVTVSWNSGALTSGVHTFPAVLQSSGLYSLSSVVTVPSSSLGTQTYICNVNHKPSNTKVDKKVEPKSCDKTHTCPPCPAPEAAGGPSVFLFPPKPKDTLMISRTPEVTCVVVDVSHEDPEVKFNWYVDGVEVHNAKTKPREEQYASTYRVVSVLTVLHQDWLNGKEYKCKVSNKALPAPIEKTISKAKGQPREPQVYTLPPSRCELTKNQVSLSCAVKGFYPSDIAVEWESNGQPENNYKTTPPVLDSDGSFFLVSKLTVDKSRWQQGNVFSCSVMHEALHNHYTQKSLSLSPDYKDDDDK light 2: DIVMTQSPLSLPVTPGEPASISCRSSQELVHTNRHTYLHWYQQKPGQAPRLLIYKVSNRFPGVPDRFSGSGSGTDFTLKISRVEAEDVGVYYCAQGTQVPFTFGQGTKLEIKRTVAAPSVFIFPPSDEQLKSGTASVVCLLNNFYPREAKVQWKVDNALQSGNSQESVTEQDSKDSTYSLSSTLTLSKADYEKHKVYACEVTHQGLSSPVTKSFNRGEC |  | -1.27 | 6.51 | -4.41 | 24.7 | 968 | 1130

More lines, now with the values ahead:

Row | fold change of affinity (Human CD137 ECD) [fold] | Agonistic activity compared to B, antibody 6 ug/mL [1] [%] | Agonistic activity compared to B, antibody 30 ug/mL [1] [%] | Agonistic activity compared to Ctrl, antibody 6 ug/mL [1] [%] | Agonistic activity compared to Ctrl, antibody 30 ug/mL [1] [%] | hIL-6 (pg/mL), antibody 6 ug/mL [1] [pg/mL] | hIL-6 (pg/mL), antibody 30 ug/mL [1] [pg/mL] | Binder
3 | 1.8 |  |  |  |  |  |  | dBBDu183H Y97F / dBBDu072L (antibody, name in Kabat numbering, V domains shown, as m1, one VH change) VH: QVQLVESGGGLVQPGRSLRLSCAASGFTFSNAWMHWVRQAPGKGLEWVAQIKDKGNAYAAYYAPSVKGRFTISRDDSKNSIYLQMNSLKTEDTAVYYCHYVHFASASTVLPAFGVDAWGQGTTVTVSS VL: DIVMTQSPLSLPVTPGEPASISCQASQELVHMNRNTYLHWYQQKPGQAPRLLIYKVSNRFPGVPDRFSGSGSGTDFTLKISRVEAEDVGVYYCAQGTSVPFTFGQGTKLEIK
4 | 0.8 |  |  |  |  |  |  | dBBDu183H Y97W / dBBDu072L (antibody, name in Kabat numbering, V domains shown, as m1, one VH change) VH: QVQLVESGGGLVQPGRSLRLSCAASGFTFSNAWMHWVRQAPGKGLEWVAQIKDKGNAYAAYYAPSVKGRFTISRDDSKNSIYLQMNSLKTEDTAVYYCHYVHWASASTVLPAFGVDAWGQGTTVTVSS VL: DIVMTQSPLSLPVTPGEPASISCQASQELVHMNRNTYLHWYQQKPGQAPRLLIYKVSNRFPGVPDRFSGSGSGTDFTLKISRVEAEDVGVYYCAQGTSVPFTFGQGTKLEIK
5 |  | 3.21 | 15.8 | 11.1 | 59.8 | 1130 | 1450 | GPC3 ERY22-dBBDu_183/L072 (bispecific antibody, human IgG1, kappa, L234A L235A, N297A) heavy 1: DIVMTQSPLSLPVTPGEPASISCRSSQSLVHSNRNTYLHWYQQKPGQAPRLLIYKVSNRFSGVPDRFSGSGSGTDFTLKISRVEAEDVGVYYCSQNTHVPPTFGQGTKLEIKSSASTKGPSVFPLAPSSKSTSGGTAALGCLVKDYFPEPVTVSWNSGALTSGVHTFPAVLQSSGLYSLSSVVTVPSSSLGTQTYICNVNHKPSNTKVDKKVEPKSCDKTHTCPPCPAPEAAGGPSVFLFPPKPKDTLMISRTPEVTCVVVDVSHEDPEVKFNWYVDGVEVHNAKTKPREEQYASTYRVVSVLTVLHQDWLNGKEYKCKVSNKALPAPIEKTISKAKGQPREPQVCTLPPSRDELTKNQVSLWCLVKGFYPSDIAVEWESNGQPENNYKTTPPVLDSDGSFFLYSKLTVDKSRWQQGNVFSCSVMHEALHNHYTQKSLSLSPHHHHHHHH light 1: QVQLVQSGAEVKKPGASVKVSCKASGYTFTDYEMHWIRQPPGQGLEWIGAIDPKTGDTAYSQKFKGRVTLTADKSTSTAYMELSSLTSEDTAVYYCTRFYSYTYWGQGTLVTVSSASVAAPSVFIFPPSDEQLKSGTASVVCLLNNFYPREAKVQWKVDNALQSGNSQESVTEQDSKDSTYSLSSTLTLSKADYEKHKVYACEVTHQGLSSPVTKSFNRGEC heavy 2: QVQLVESGGGLVQPGRSLRLSCAASGFTFSNAWMHWVRQAPGKGLEWVAQIKDKGNAYAAYYAPSVKGRFTISRDDSKNSIYLQMNSLKTEDTAVYYCHYVHYASASTVLPAFGVDAWGQGTTVTVSSASTKGPSVFPLAPSSKSTSGGTAALGCLVKDYFPEPVTVSWNSGALTSGVHTFPAVLQSSGLYSLSSVVTVPSSSLGTQTYICNVNHKPSNTKVDKKVEPKSCDKTHTCPPCPAPEAAGGPSVFLFPPKPKDTLMISRTPEVTCVVVDVSHEDPEVKFNWYVDGVEVHNAKTKPREEQYASTYRVVSVLTVLHQDWLNGKEYKCKVSNKALPAPIEKTISKAKGQPREPQVYTLPPSRCELTKNQVSLSCAVKGFYPSDIAVEWESNGQPENNYKTTPPVLDSDGSFFLVSKLTVDKSRWQQGNVFSCSVMHEALHNHYTQKSLSLSPDYKDDDDK light 2: DIVMTQSPLSLPVTPGEPASISCQASQELVHMNRNTYLHWYQQKPGQAPRLLIYKVSNRFPGVPDRFSGSGSGTDFTLKISRVEAEDVGVYYCAQGTSVPFTFGQGTKLEIKRTVAAPSVFIFPPSDEQLKSGTASVVCLLNNFYPREAKVQWKVDNALQSGNSQESVTEQDSKDSTYSLSSTLTLSKADYEKHKVYACEVTHQGLSSPVTKSFNRGEC
